Laboratory results from patent US20200199244A1 (published 2020).
Changes are numbered by the printed parent chain.

B1: BMS3h-38-235 (other)
VH: EVQLLASGGGLVQPGGSLRLSCAASGFTFEEEEMIWVRQAPGKGLEWVSAISRNGYSTYYADSVKGRFTISRDNSKNTLYLQMNSLRAEDTAVYYCGKEPFRYDYWGQGTLVTVSS
B2: BMS3h-38-238 (other)
VH: B1 VH with N54S
B3: BMS3h-38-237 (other)
VH: B1 VH with N54G, Y56W
B4: BMS3h-38-3 (other)
VH: B1 VH with V48I, R53G, N54S, Y56G, Y103F
B5: BMS3h-5 (other)
VH: EVQLLESGGGLVQPGGSLRLSCAASGFTFDEHDMSWVRQAPGKGLEWVSRIGPDGFHTYYADSVKGRFTISRDNSKNTLYLQMNSLRAEDTAVYYCAKGRIPTLHFDYWGQGTLVTVSS
B6: BMS3h-56-1 (other)
VH: EVQLLESGGGLVQPGGSLRLSCAASGFTFRDYEMWWVRQAPGKGLERVSAINPQGTRTYYADSVKGRFTISRDNSKNTLYLQMNSLRAEDTAVYYCAKLPFTFEDWGQGTLVTVSS
B7: BMS3h-56-215 (other)
VH: B6 VH with Q54H, T56S, R57L, E104D
B8: BMS3h-56-7 (other)
VH: B6 VH with A92S, Y95H, L99P, T102I, E104G, Q108P
B9: BMS3h-56-248 (other)
VH: B6 VH with Q54Y, T56N, R57L, E104D
B10: BMS3h-56-206 (other)
VH: B6 VH with Y95H, F101M, T102F, S116N
B11: BMS3h-56-201 (other)
VH: B6 VH with T102Y, E104Q, D105E
B12: BMS3h-56-9 (other)
VH: B6 VH with K65M, T102M, E104D, W106R
B13: BMS3h-56-19 (other)
VH: B6 VH with Y95H
B14: BMS3h-56-21 (other)
VH: B6 VH with A97L
B15: BMS3h-56-244 (other)
VH: B6 VH with Q54W, T56G, R57L, E104D
B16: BMS3h-56-15 (other)
VH: B6 VH with Q39R
B17: BMS3h-56-217 (other)
VH: B6 VH with Q54W, T56S, R57L
B18: BMS3h-56-224 (other)
VH: B6 VH with Q54W, T56Q, R57L
B19: BMS3h-56-8 (other)
VH: B6 VH with L18R
B20: BMS3h-56-258 (other)
VH: B6 VH with T102Y, E104H, D105E
B21: BMS3h-56-203 (other)
VH: B6 VH with T102F, D105E
B22: BMS3h-56-243 (other)
VH: B6 VH with Q54W, T56G, R57F
B23: BMS3h-56-270 (other)
VH: B6 VH with F101T, T102L, E104Q
B24: BMS3h-56-261 (other)
VH: B6 VH with T102F, E104Q, D105E
B25: BMS3h-56-262 (other)
VH: B6 VH with F101Q, T102L, E104H, W106R
B26: BMS3h-56-246 (other)
VH: B6 VH with Q54W, R57L
B27: BMS3h-56-6 (other)
VH: B6 VH with T28S, V37Y, T102I, E104D, D105N, W106R
B28: BMS3h-56-239 (other)
VH: B6 VH with Q54W, T56S, R57L, E104D
B29: BMS3h-56-269 (other)
VH: B6 VH with T102R, E104S, W106R
B30: BMS3h-56-2 (other)
VH: B6 VH with E104D
B31: BMS3h-56-265 (other)
VH: B6 VH with F101Q, T102L, E104Q
B32: BMS3h-56-266 (other)
VH: B6 VH with T102F, E104H, D105E
B33: BMS3h-56-202 (other)
VH: B6 VH with F101T, T102Y, E104S, W106R
B34: BMS3h-56-232 (other)
VH: B6 VH with Q54W, T56S, R57H, E104D
B35: BMS3h-56-253 (other)
VH: B6 VH with Q54A, T56G, R57Y, Y95H
B36: BMS3h-41-1 (other)
VH: EVQLLESGEGLVQPGGSLRLSCAASGFTFTEHEMIWVRQAPGKGLEWVSSISGNGANTYYADSVKGRFTISRDNSKNTLYLQMNSLRPEDTAVYYCAKEPLRFDYWGQGTLVTVSS
B37: BMS3h-41-9 (other)
VH: B36 VH with S7P, E9G, H32Y, Q39K, L45M, Y105D
B38: BMS3h-41-13 (other)
VH: B36 VH with G8A, E9G, T30A, H32Y, P88A, T110A
B39: BMS3h-41-2 (other)
VH: B36 VH with E9G, F27S, H32Y, V48I, P88A, Y95F, W106R
B40: BMS3h-43-1 (other)
VH: EVQLLESGGGLVQPGGSLRLSCTASGFTFNMYEMSWVRQAPGKGLEWVSGISRRGFTTYYADSVKGRFTISRDNSKNTLYLQMNSLRAEDTAVYYCAKEPITYDLRYARFDYSGQGTLVTVSS
B41: BMS3h-43-3 (other)
VH: B40 VH with S75F, L105M, S113G
B42: BMS3h-43-5 (other)
VH: B40 VH with M31T, S52G
B43: BMS3h-43-11 (other)
VH: B40 VH with Q39K, R54H, L105M, S113W

Molecular target: human CD40 (human, UniProt P25942 21-277)
Sequence (P25942 21-277 limits assumed): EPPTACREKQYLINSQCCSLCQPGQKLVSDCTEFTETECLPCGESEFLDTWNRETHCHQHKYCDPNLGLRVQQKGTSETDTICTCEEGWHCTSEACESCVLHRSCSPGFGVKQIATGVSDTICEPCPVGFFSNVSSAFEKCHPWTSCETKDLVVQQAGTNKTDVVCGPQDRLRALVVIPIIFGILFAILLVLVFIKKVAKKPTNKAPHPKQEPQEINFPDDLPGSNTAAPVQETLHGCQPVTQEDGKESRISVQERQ
Test: cell-based or functional assay

| Binder | hIZCD40L-driven Human B Cell Proliferation EC50 | CHO-hCD40L-driven Human B Cell Proliferation EC50 | CHO-hCD40L-driven DC Activation IL-12 EC50 | T-B cell MLR EC50 |
| --- | --- | --- | --- | --- |
| B1 | 0.4 nM | – | – | – |
| B2 | 0.7 nM | – | – | – |
| B3 | 0.4 nM | – | – | – |
| B4 | 10 nM | – | – | – |
| B5 | > 7000 nM | > 7000 nM | – | – |
| B6 | 7 nM | – | – | – |
| B7 | 0.2 nM | 41 nM | 11 nM | 31 nM |
| B8 | 8 nM | – | – | – |
| B9 | 0.36 nM | – | – | – |
| B10 | 0.1 nM | 6 nM | 0.7 nM | 5.25 nM |
| B11 | 0.12 nM | 11 nM | 0.93 nM | 7.25 nM |
| B12 | 3 nM | – | – | – |
| B13 | 3 nM | – | – | – |
| B14 | 2 nM | – | – | – |
| B15 | 0.17 nM | 26 nM | 12.6 nM | 21 nM |
| B16 | 2 nM | – | – | – |
| B17 | 0.1 nM | 13 nM | 9.4 nM | 16 nM |
| B18 | 0.5 nM | 26 nM | 18 nM | 47 nM |
| B19 | 5 nM | – | – | – |
| B20 | 0.079 nM | 11 nM | 1.52 nM | 8.7 nM |
| B21 | 0.45 nM | 51 nM | 3.7 nM | 52 nM |
| B22 | 0.15 nM | 13.5 nM | 8.8 nM | 14.2 nM |

| Binder | hIZCD40L-driven Human B Cell Proliferation EC50 | CHO-hCD40L-driven Human B Cell Proliferation EC50 | CHO-hCD40L-driven DC Activation IL-12 EC50 | T-B cell MLR EC50 |
| --- | --- | --- | --- | --- |
| B23 | 0.31 nM | – | – | – |
| B24 | 0.17 nM | 25.5 nM | 3 nM | 17 nM |
| B25 | 0.31 nM | – | – | – |
| B26 | 0.24 nM | 34 nM | 23.2 nM | 23.8 nM |
| B27 | 4 nM | – | – | – |
| B28 | 0.11 nM | 18 nM | 5.8 nM | 13.5 nM |
| B29 | 0.14 nM | 15 nM | 1.8 nM | 9.7 nM |
| B30 | 3 nM | 326 nM | – | 276 nM |
| B31 | 0.36 nM | – | – | – |
| B32 | 0.19 nM | 19.5 nM | 2.8 nM | 13.8 nM |
| B33 | 0.6 nM | 39 nM | 2.9 nM | 50 nM |
| B34 | 0.27 nM | 37 nM | 7.3 nM | 42 nM |
| B35 | 0.4 nM | – | – | – |
| B36 | 104 nM | – | – | – |
| B37 | 148 nM | – | – | – |
| B38 | 208 nM | – | – | – |
| B39 | 47 nM | – | – | – |
| B40 | 53 nM | – | – | – |
| B41 | 87 nM | – | – | – |
| B42 | 180 nM | – | – | – |
| B43 | 30 nM | – | – | – |
